Data published in patent US20180186853A1 (HANMI PHARM, published 2018).
Non-standard residues stand in square brackets, D forms with d. No end group written: not given here. Aib = CC(C)(N)C(=O)O

The binders below were run against human glucagon receptor (human, UniProt P47871 26-477) (assay: cell-based or functional assay).
human glucagon receptor, sequence (P47871 26-477): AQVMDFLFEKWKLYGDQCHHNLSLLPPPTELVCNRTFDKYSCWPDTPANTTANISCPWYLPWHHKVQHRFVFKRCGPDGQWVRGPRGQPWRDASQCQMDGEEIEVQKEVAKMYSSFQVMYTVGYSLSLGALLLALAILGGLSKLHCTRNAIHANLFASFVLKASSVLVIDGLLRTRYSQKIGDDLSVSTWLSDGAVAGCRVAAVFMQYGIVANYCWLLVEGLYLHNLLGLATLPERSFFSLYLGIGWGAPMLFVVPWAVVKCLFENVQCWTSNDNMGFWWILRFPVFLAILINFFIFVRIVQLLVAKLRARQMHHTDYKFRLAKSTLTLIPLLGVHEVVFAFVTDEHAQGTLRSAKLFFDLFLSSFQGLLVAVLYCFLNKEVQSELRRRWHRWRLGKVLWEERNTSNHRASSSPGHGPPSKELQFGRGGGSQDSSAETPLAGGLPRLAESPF

Row | In vitro Activity (Relative Activity of SEQ ID NO: 1, %), from cAMP EC50 [%] | Binder
1 | < 0.1 | HSQGTFTSDYSKYLDSCEADDFVQWLMNT [glucagon derivative of SEQ ID NO: 6]
2 | < 0.1 | YSQGTFTSDYSKYLDSCEADDFVQWLMNT [glucagon derivative of SEQ ID NO: 7]
3 | < 0.1 | Y[Aib]QGTFTSDYSKYLDSCDAQDFVQWLINT [glucagon derivative of SEQ ID NO: 8]
